The record followed here is PMC9108610 (2022).

The experiment concerns the target T1, CSC (Vps26/Vps29-GFP/Vps35) (Saccharomyces cerevisiae, UniProt P40335).
T1 chain 1: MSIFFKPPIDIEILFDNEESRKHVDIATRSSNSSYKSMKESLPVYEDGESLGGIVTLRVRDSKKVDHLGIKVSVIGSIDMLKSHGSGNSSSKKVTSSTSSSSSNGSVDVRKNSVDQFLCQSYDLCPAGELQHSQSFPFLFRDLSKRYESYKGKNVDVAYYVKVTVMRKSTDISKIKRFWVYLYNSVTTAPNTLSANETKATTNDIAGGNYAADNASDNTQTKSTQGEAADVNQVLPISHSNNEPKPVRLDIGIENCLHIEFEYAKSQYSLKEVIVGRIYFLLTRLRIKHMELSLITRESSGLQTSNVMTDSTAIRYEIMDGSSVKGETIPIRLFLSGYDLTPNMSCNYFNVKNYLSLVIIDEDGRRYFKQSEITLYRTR
T1 chain 2: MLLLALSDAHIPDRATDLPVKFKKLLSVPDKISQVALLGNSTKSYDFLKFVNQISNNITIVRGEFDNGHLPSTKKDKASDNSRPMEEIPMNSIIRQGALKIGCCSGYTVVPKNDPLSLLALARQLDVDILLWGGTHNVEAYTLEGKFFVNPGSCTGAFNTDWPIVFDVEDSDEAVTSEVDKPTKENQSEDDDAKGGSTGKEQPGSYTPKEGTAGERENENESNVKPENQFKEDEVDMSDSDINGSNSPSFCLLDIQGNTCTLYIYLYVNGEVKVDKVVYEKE
T1 chain 3: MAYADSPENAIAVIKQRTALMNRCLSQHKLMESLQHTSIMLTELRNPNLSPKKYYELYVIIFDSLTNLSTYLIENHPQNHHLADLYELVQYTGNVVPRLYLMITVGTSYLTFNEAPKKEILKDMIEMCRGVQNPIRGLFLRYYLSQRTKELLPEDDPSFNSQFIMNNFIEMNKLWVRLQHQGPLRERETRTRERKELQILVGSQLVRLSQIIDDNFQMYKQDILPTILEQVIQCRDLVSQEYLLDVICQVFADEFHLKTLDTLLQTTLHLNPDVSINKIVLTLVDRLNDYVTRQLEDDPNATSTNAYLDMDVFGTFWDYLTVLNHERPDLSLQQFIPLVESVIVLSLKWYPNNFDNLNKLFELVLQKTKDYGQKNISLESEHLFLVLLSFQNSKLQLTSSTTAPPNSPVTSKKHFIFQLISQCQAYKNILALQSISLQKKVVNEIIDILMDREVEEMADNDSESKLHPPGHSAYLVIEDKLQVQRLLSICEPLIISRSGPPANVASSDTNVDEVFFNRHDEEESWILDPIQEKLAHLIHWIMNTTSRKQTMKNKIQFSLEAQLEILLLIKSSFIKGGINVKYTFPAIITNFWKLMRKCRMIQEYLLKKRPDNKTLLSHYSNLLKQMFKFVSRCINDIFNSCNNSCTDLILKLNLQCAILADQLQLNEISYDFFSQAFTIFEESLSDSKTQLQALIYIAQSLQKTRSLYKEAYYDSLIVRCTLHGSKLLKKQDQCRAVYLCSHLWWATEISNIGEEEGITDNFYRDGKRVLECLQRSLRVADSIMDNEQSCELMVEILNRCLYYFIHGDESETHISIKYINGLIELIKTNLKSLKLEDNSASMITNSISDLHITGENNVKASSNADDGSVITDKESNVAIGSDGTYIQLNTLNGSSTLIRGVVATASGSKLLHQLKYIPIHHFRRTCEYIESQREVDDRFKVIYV
Nature of the experiment: fluorescence titration (Vps29-GFP emission increase).

As a reminder, the Kd is the equilibrium constant for the complex coming apart. A higher Kd goes with lower affinity.

B1: Atg18 (protein)
chain: MSDSSPTINFINFNQTGTCISLGTSKGFKIFNCEPFGKFYSEDSGGYAIVEMLFSTSLLALVGIGDQPALSPRRLRIINTKKHSIICEVTFPTSILSVKMNKSRLVVLLQEQIYIYDINTMRLLHTIETNPNPRGLMAMSPSVANSYLVYPSPPKVINSEIKAHATTNNITLSVGGNTETSFKRDQQDAGHSDISDLDQYSSFTKRDDADPTSSNGGNSSIIKNGDVIVFNLETLQPTMVIEAHKGEIAAMAISFDGTLMATASDKGTIIRVFDIETGDKIYQFRRGTYATRIYSISFSEDSQYLAVTGSSKTVHIFKLGHSMSNNKLDSDDSNMEEAAADDSSLDTTSIDALSDEENPTRLAREPYVDASRKTMGRMIRYSSQKLSRRAARTLGQIFPIKVTSLLESSRHFASLKLPVETNSHVMTISSIGSPIDIDTSEYPELFETGNSASTESYHEPVMKMVPIRVVSSDGYLYNFVMDPERGGDCLILSQYSILMD
On to B1, for which the dissociation constant (Kd) was around 50 nM.
